Test results: article PMC2191588

Target: TCR beta proteins on normal splenic CD4+ T cells (mouse (endogenous in splenic CD4+ T cells))
Assay: flow cytometry on cells

Q: For “CD3 epsilon (from UniProt P22646 22-189) (natural protein)”, which stoichiometry N (CD3e per TCR beta) is on record?
A: 2
